# Assays:
# [1] = biological target: EGFRvIII (form used in the assay not stated) (UniProt P00533); test: surface plasmon resonance
# [2] = biological target: EGFRvIII (mutant epidermal growth factor receptor) expressed by the U87MGΔEGFR cell line (UniProt P00533); test: binding of labeled mAb to EGFRvIII-positive tumor xenograft homogenate, Lindmo method (per Example 2)
# [3] = biological target: EGFRvIII (mutant epidermal growth factor receptor) expressed by the U87MGΔEGFR cell line (UniProt P00533); test: binding of radiolabeled mAb to U87MGΔEGFR cells (Scatchard analysis per Example 2)
# [4] = biological target: EGFRvIII (form used in the assay not stated) (UniProt P00533); test: SIPC-labeled scFv; immunoreactive fraction, antigen source not stated
# [5] = biological target: EGFRvIII (form used in the assay not stated) (UniProt P00533); test: SIPC-labeled scFv; method not stated
substance,measurement,setting,value
L8A4 scFv dimer with a 5 amino acid linker between the VL and VH domains,Ka,[1],5.5e+09 M⁻¹
"^211 At-labeled L8A4 (anti-EGFRvIII mAb L8A4 labeled with N-succinimidyl 5-[^211 At]astato-3-pyridinecarboxylate, SAPC) (antibody)",immunoreactive fraction,[2],69 to 89%
same,Ka,[3],9.7e+08 M⁻¹
"scFv monomer based on the L8A4 variable region, labeled with SIPC",immunoreactive fraction,[4],65 to 80%
same,Ka,[5],1.5e+08 M⁻¹

# Source: US6998106
